Assay results from patent US8409836B2, “Treatment of cellulosic material and enzymes useful therein” (Roal Oy, priority 2005, dated 2013).

Experiments:
[1] = Hydrolysis with endoglucanase preparations, corn stover; assay type: biochemical; settings: with CBHI and CBHII of T. reesei; 48 h, 45° C., pH 5.0
Procedure: The preparations containing the endoglucanases were compared in hydrolysis studies mixed with the purified CBH/Cel7 and CBH/Cel6 enzymes on several pre-treated substrates. Culture filtrates of T. reesei, containing different cloned endoglucanase enzymes were obtained as described in Example 19. The enzymes were enriched by removing thermolabile proteins from the mixtures by a heat treatment (60° C., 2 h, pH 5) and the supernatant was used for the hydrolysis studies. In addition, pure T. reesei cellulases (purified as described by Suurnäkki et al., 2000) were used in the enzyme mixtures. The endoglucanases used in the experiment were:
Steam exploded corn stover fibre (steam pre-treatment at 210° C. for 5 min), dry matter 31.0% (SECS).
The endoglucanases to be studied (dosage 840 nkat/g dry matter, based on endoglucanase activity against HEC according to IUPAC, 1987) were used either with cellobiohydrolases of T. reesei (CBHI/Cel7A, 8.1 mg/g d.m. and CBHII/Cel6A, 2.0 mg/g d.m.) or with Thermoascus aurantiacus Cel7A with genetically attached CBD of T. reesei (10.1 mg/g d.m.). Purified (Suurnäkki et al., 2000) EGI (Cel7B) and EGII (Cel5A) of T. reesei were also included in the experiments for comparison. All mixtures were supplemented with additional β-glucosidase from Novozym 188 (to make the total β-glucosidase dosage 560 nkat/g d.w., the relatively high dosage was used to compensate the differences in the background activities of the different EG preparations). Triplicate tubes were incubated in mixing at 45° C. for 48 h and reference samples with inactivated enzymes and corresponding substrates were prepared. The release of hydrolysis products was measured as reducing sugars with DNS method using glucose as standard (Table 31).

[2] = pH optimum of heterologously produced endoglucanases; assay type: biochemical; settings: McIlvaine's buffer, pH range 4.0-8.0, CMC, 10 min, 50° C.
Procedure: (§1) The pH optimum of the heterologously produced endoglucanases was determined in the universal McIlvaine's buffer within a pH range of 4.0-8.0 using carboxymethylcellulose as substrate. As shown in FIG. 6 A the broadest pH range (4.5-6.0) is that of the Acremonium EG—40/Cel45A protein, the optimum being at pH 5.5. The pH optima for the other heterologously produced endoglucanases are pH 5.0-5.5 and 6.0 for Acremonium EG—40_like/Cel45B and Thermoascus EG—28/Cel5A, respectively. The optimal temperature for enzymatic activity of these endoglucanases was determined at the temperature range of 50-85° C. as described above. The highest activity of the enzymes was determined to be at 75° C., 60° C., and 75° C. for the Acremonium EG—40/Cel45A, EG—40 like/Cel45B, and Thermoascus EG—28/Cel5A, respectively (FIG. 6 B).

[3] = Isoelectric focusing (PhastSystem), pI of purified protein; assay type: physicochemical; settings: IEF gel
[4] = Temperature optimum of heterologously produced endoglucanases; assay type: biochemical; settings: temperature range 50-85° C., CMC
Procedure: as §1

B1: Ta EG_28: endoglucanase of Thermoascus aurantiacus ALKO4242, gene Ta cel5A, amino acid SEQ ID NO: 10 (protein)
chain: MKLGSLVLALSAARLTLSAPLADRKQETKRAKVFQWFGSNESGAEFGSQNLPGVEGKDYIWPDPNTIDTLISKGMNIFRVPFMMERLVPNSMTGSPDPNYLADLIATVNAITQKGAYAVVDPHNYGRYYNSIISSPSDFQTFWKTVASQFASNPLVIFDTNNEYHDMDQTLVLNLNQAAIDGIRSAGATSQYIFVEGNSWTGAWTWTNVNDNMKSLTDPSDKIIYEMHQYLDSDGSGTSATCVSSTIGQERITSATQWLRANGKKGIIGEFAGGANDVCETAITGMLDYMAQNTDVWTGAIWWAAGPWWGDYIFSMEPDNGIAYQQILPILTPYL
Q: With B1 as the molecule, how does the “Hydrolysis products as reducing sugars, SECS” value [1] read?
A: 3.9 mg/mL

Q: What about the pH optimum [2] of the same molecule?
A: 6.0

Q: What about the “pI of the purified protein” value [3] of the same molecule?
A: about 3.5

Q: And the “Temperature of highest activity” value [4]?
A: 75 °C
